Data on 23 molecules can be found in patent US20240409645A1.

The experiment concerns the target T1, mouse IL-2Rβ (mouse) (UniProt P16297).
T1 sequence (looked up): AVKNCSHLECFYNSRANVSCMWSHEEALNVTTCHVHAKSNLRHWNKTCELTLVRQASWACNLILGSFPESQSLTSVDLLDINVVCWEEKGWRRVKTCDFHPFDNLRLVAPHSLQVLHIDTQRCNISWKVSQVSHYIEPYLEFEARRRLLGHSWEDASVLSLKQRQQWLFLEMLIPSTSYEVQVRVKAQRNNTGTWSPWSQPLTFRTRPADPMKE
In words: P.E. ELISA, coated protein.

B1: FJ1427_P035MP02A01 (VHH)
VHH: QVQLVESGGGLVQTGGSLRLSCVVSGSHFISDVMGWYRQVPGKQRELVADMADGGSAKYGDSVKGRFTILRDSVKNTVYLQMSSLNPEDTGVYYCKAGLWITGRHSDYWGQGTQVTVSS
In the case of B1, the P.E. binding ELISA OD was 0.048 OD450 nm.

B2: FJ1427 P035MP02G02 (VHH)
VHH: QVQLVESGGGLVQPGGSLRLSCAASGSHFISDVMGWYRQVPGKQRELVADMADGGSVKYGDSVKGRFTILRDSVKNTVTLQMSSLNPEDTGVYYCKAGLWITGRHFDYWGQGIQVTVTS
In the case of B2, the P.E. binding ELISA OD was found to be 0.049 OD450 nm.

B3: FJ1427_P035MP02G01 (VHH)
VHH: QVQLVESGGGLVQTGGSLRLSCAVSGSRFISDVMGWYRQVPGKQRELVADMADGGSAKYADSVKGRFSILRDSAKNTVYLQMSSLKPEDTGIYYCKAGLWIAGRHSDYWGQGTQVTVSS
Take B3: the P.E. binding ELISA OD turned out to be 0.049 OD450 nm.

B4: FJ1427_P035MP02F01 (VHH)
VHH: EVQLVESGGGLVQTGGSLRLSCAVSGSRFISDVMGWYRQVPGKQRELVADMADGGSAKYADSVKGRFSILRDSVKNTVYLQMSSLKPEDTGIYYCKAGLWIAGRHSDYWGQGTQVTVSS
Molecule B4 returned a P.E. binding ELISA OD of 0.048 OD450 nm.

B5: FJ1427_P035MP02B02 (VHH)
VHH: EVQLVESGGTLVQTGGSLRLSCVVSGSHFISDVMGWYRQVPGKQRELVADMADGGSAKYGDSVKGRFTIVRDSVKNTVYLQMSSLNPEDTGVYYCKAGLWIKGRHSDYWGQGTQVTVTS
In the case of B5, the P.E. binding ELISA OD stood at 0.048 OD450 nm.

B6: FJ1427_P035MP03F12 (VHH)
VHH: EVQLVESGGGLVQAGGSLRLSCAASGSIFSINAMAWFRQVPGMERELVAAISRDGGASVYRDSVKGRFTISRDNSKNTVYLQMNTLKPEDTAIYVCAATRAIGWTARWITTDFDFWGQGTQVTVSS
B6: the P.E. binding ELISA OD amounted to 0.048 OD450 nm.

B7: FJ1427 P035MP02D02 (VHH)
VHH: QVQLVESGGGLVQVGGSLSVSCAASGRSFDSITMAYFRQAPGNEREFIAGINFSGSRTAYGDSVKGRFTISRDNAKNTVFLQMNSLNPEDTAVYYCAASPRGFYGPGHALYDYWGQGTQVTVSS
With B7, the P.E. binding ELISA OD was 0.048 OD450 nm.

B8: FJ1427_P035MP03F10 (VHH)
VHH: EVQLVESGGGLVQAGGSLRLSCAASGRDFSSYAMGWFRQAPGKEREFVVAITWTKRSTDFPDSVKGRFTISRDNAKNTVYLDMNSLKPEDTAVYYCASARGLPVTPLGDIIYWGEGTLVTVSS
Turning to B8, the P.E. binding ELISA OD was 0.048 OD450 nm.

B9: FJ1427_P035MP02E01 (VHH)
VHH: EVQLVESGGGLVQIGGSLRLSCAASGRTFSSITMAYFRQVPGKEREWVAGINFSGTRTFYADSVKGRFLISRDDAKSTMYLQMNSLKPEDTAVYYCAASPRGFYGPGNALYDYWGQGTQVTVSS
B9 returned a P.E. binding ELISA OD of 0.049 OD450 nm.

B10: FJ1427 P035MP02F02 (VHH)
VHH: EVQLVESGGGLVQAGGSLRLACALSGDVFVRYTMAWFRQAPGKEREFVASVTDSGRTTDYVASVQGRFTVSRDNNKNTVYLQMNSLKPEDTAVYYCAANTDYFQIRSLDRNTWGQGTQVTVSS
For the molecule B10, the P.E. binding ELISA OD worked out at 0.052 OD450 nm.

B11: FJ1427_P035MP02C02 (VHH)
VHH: QVQLVESGGGLVQPGGSLRLSCAASGSRFVSDFMGWYRQVPGKQRELVADMADGGSARYGDSVKGRFTILRDNMNSTAFLQMSSLKPEDTGVYYCKAGLWIAGRHFDYWGQGTQVTVSS
B11 showed a P.E. binding ELISA OD of 0.048 OD450 nm.

B12: FJ1427 P035MP02C01 (VHH)
VHH: QVQLVESGGGLVQPGGSLGLSCAASGFTFDNYAMSWVRQAPGKGLEWVSSITGAGRGTHYADSVKGRFTISRDNAKNTLYLQMNSLKPEDTAVYYCAKYSSSTYYPPTPARGTDYRGPGTQVTVSS
In the case of B12, the P.E. binding ELISA OD amounted to 0.047 OD450 nm.

B13: FJ1427_P035MP02H01 (VHH)
VHH: QVQLVESGGGLVQPGGSLGLSCAASGFTFDNYAMSWVRQAPGKGLEWVSSITGAGRGTHYADSVKGRFTISRDNAKNTLYLQMNSLKPEDTAVYYCAKYSSSTYYPPTPARGTDYRGPGTQVTVSS
B13 registered a P.E. binding ELISA OD of 0.051 OD450 nm.

B14: FJ1427_P035MP02A02 (VHH)
VHH: QVQLVESGGGLVQPGGSLRLSCAASGFTFDNYAMTWVRQAPGKGLEWVSSITGAGRGTHYADSVKGRFTISRDNAKNTLYLQVNSLKPEDTAVYYCARYSSSTYYPTTPVRGTDYRGQGTQVTVSS
As to B14, the P.E. binding ELISA OD was 0.049 OD450 nm.

B15: FJ1427_P035MP02B01 (VHH)
VHH: QVQLVESGGGLVQTGGSLRLSCAASGSQFINDVMGWYRQVPGKQRELVADMDDTGSTKYADSVKGRFTILRDSVKNTAYLQMSNLKPEDTGVYYCKAGLWIKGRHFDYWGQGTQVTVSS
Turning to B15, the P.E. binding ELISA OD stood at 0.048 OD450 nm.

B16: FJ1427 P035MP02E02 (VHH)
VHH: EVQLVESGGGLVQTGGSLRLSCAASGSQFINDVMGWYRQVPGKQRELVADMDDTGSTKYADSVKGRFTILRDSVKNTAYLQMSNLKPEDTGVYYCKAGLWIKGRHSDYWGQGTQVTVSS
Molecule B16 came in with a P.E. binding ELISA OD of 0.049 OD450 nm.

B17: FJ1427 P035MP02D01 (VHH)
VHH: QVQLQESGGGLVQTGGSLRLSCAASGSQFINDVMGWYRQVPGKQRELVADMDDTGSTKYADSVKGRFTILRDSVKNTAYLQMSNLKPEDTGVYYCKAGLWIKGRHSDYWGQGTQVTVSS
In turn, B17 came in with a P.E. binding ELISA OD of 0.048 OD450 nm.

B18: FJ1427_P035MP06F05 (VHH)
VHH: QVQLVESGGGLVQTGDSLRLSCAASGRSLDTTYIAWFRQAPGKERDFLAYISPRFSHTWYADSVKGRFTISRNIAKRTVDLEMNSLEPEDTAVYYCAAREHSGSTAWEHYDHWGQGTQVTVSS
On to B18, for which the P.E. binding ELISA OD was 0.047 OD450 nm.

B19: FJ1427_P035MP02A03 (VHH)
VHH: QVQLVESGGGLVQPGGSLRLSCAASGFTFSNYAMSWVRQAPGKGLEWVSSITGAGRGTYYAESVKGRFTISRDNDKNTLYLQMNSLKPEDTAVYYCAKYDSSTFYPPTPARGIADRGQGTRVTVSS
B19 registered a P.E. binding ELISA OD of 0.048 OD450 nm.

B20: FJ1427 P035MP03A12 (VHH)
VHH: EVQLVESGGGLVQAGGSLRLSCAASGRTFSINAMGWFRQAPGKEREFVAAISRSGGSTVYVDGVKGRFTISRDNAKNTVYLQMNSLEPEDTAVYYCAATMAVGWTTRWRTADFDSWGQGTQVTVSS
Turning to B20, the P.E. binding ELISA OD was found to be 0.05 OD450 nm.

B21: FJ1427_P035MP03F08 (VHH)
VHH: EVQLVESGGGLVQTGGSLRLSCAASGGTFSRDAMAWFRQVPGKEREFVALISWSGATTNYADSVKGRFAISRDNGKNTVYLQMNRLKPADTAIYYCAADRRPMGSRSYFEPTEYDDWGQGTQVTVSS
The molecule B21 showed a P.E. binding ELISA OD of 0.049 OD450 nm.

B22: FJ1427 P035MP06E05 (VHH)
VHH: QVQLVESGGELVQGGASLRLSCAASGRTFSNANMAWFRQAPEKEREFVALITWSSGSTLYADSVKGRFTISRDNARKMVYLQMNSLKPEDTAVYYCAADGPPYSGTYYRYDTYDYWGQGTQVTVSS
The molecule B22 gave a P.E. binding ELISA OD of 0.046 OD450 nm.

B23: FJ1427_P035MP03C03 (VHH)
VHH: QVQLVESGGGLVQPGGSLRLSCAISGGTLDSYGIGWVRQAPGKQREGVSCMSRSDDRTYYADSVKGRFTISKDSAKNTVYLQMTSLKPEDTAVYYCAAVDAYGCSLVQPTTYDFWGLGTQVTVSS
Consider B23, for which the P.E. binding ELISA OD was 0.048 OD450 nm.
